Experimental data published in the Human Domainome abundance scans (Beltran et al. 2025).

B1: Pituitary-specific positive transcription factor 1, residues 130 to 198; numbered along this chain, P28069 (parent)
chain: RELEKFANEFKVRRIKLGYTQTNVGEALAAVHGSEFSQTTICRFENLQLSFKNACKLKAILSKWLEEAE

Variants of: B1
Assay: abundance fitness (aPCA) (normalised: wild type 0, dead -1); higher = more abundant; growth selection in yeast, the domain comes from the species named
Conditions: Homo sapiens

Abundance fitness: each site, then its substitutions
N53: I -0.027; P -0.115; E 0.355; V 0.122; A 0.107; L -0.001; T 0.131; G -0.087; H 0.233; M 0.058; Q 0; R 0.206; S 0.115; K 0.21; W -0.271; C -0.013
C55: L 0.121; N -0.201; A -0.207; T -0.098; H -0.099; Y 0.012; D 0.188; V 0.15; G -0.395; M 0.145; E -0.07; I 0.046; W -0.14; K -0.153; R -0.294; S 0.024
Q48: W -0.915; V -0.574; T -0.177; G -0.673; M -0.505; K -0.476; H -0.66; C -0.586; A -0.629; D -0.055; L -0.406; R -0.331; P -0.506; E -0.003; I -0.758; S -0.389; F -0.889; Y -0.79
A54: Y -0.333; F -0.131; M 0.358; Q -0.473; W -0.302; V -0.756; R -0.974; C -0.382; S 0.06; L -0.033; G -0.295
F51: Y 0.034; W -0.042; L -0.19; Q -0.061; V 0.021; C -0.534; G -0.39; E 0.144; T -0.07; K -0.11; S -0.189; I -0.1; M -0.156; R -0.161; D -0.001; A -0.174; H 0.077; N -0.342; P -0.142
L49: S -0.568; M 0.106; Y -0.477; D -0.847; R -0.862; N -0.818; P -0.687; A -0.964; H -0.721; G -0.632; W -1.15; V -0.323; C -0.208; I -0.262; Q -0.749; E -0.616; F -0.149
L47: W -0.789; V -0.888; Y -0.428; T -0.667; S -0.168
K52: Y 0.057; A 0.002; L -0.369; N -0.024; P -0.077; W -0.408; R -0.04; Q 0.022; T 0.036; D 0.075; C -0.753; S -0.002; G -0.149; E 0.108; V 0.073; H 0.018; I -0.463
L57: I 0.013; N -0.72; D -0.67; H -0.226; C -0.228; E -0.345; M 0.285; G -0.507; K -0.497; R -0.584; P -0.89; F -0.126; A -0.449; S -0.534
S50: K -0.182; L -0.57; F -0.724; R -0.348; N 0.022; I -0.378; T -0.206; G 0.035; M -0.766; Y -0.822; D 0.162; V -0.877; A -0.307; H -0.168; Q -0.533; C -0.459; W -0.126
K56: C -0.505; V -0.135; G -0.341; A -0.226; W -0.533; M -0.268; T -0.307; E -0.132; R 0.005; H -0.34; S -0.23; Q -0.074; F -0.554; L -0.466; N -0.131; P -0.626; D -0.366
